Results on two molecules are retold here after patent publication US20240376208A1 (AFFIMED, published 2024).

In experiment [1] the target is T1, biotinylated dimeric CD16A antigen (human, UniProt P08637 17-208, limits assumed, biotinylated (site not stated)).
T1 construct: Soluble antigen; also called soluble CD16A antigen
Kind of experiment: ELISA, biotinylated dimeric CD16A titrated on coated construct. The protocol:
(§1) For the capturing approach, 96-well ELISA plates (Immuno Maxisorp, Nunc) were coated overnight at 4° C. with His-tagged human EGFR or BCMA extracellular domain at concentrations of 3.0 or 0.4 μg/mL, respectively. After blocking with 3% (w/v) skimmed milk powder dissolved in phosphate buffered saline (PBS), antigen coated plates were used for capturing of different multivalent bispecific engagers at concentrations of 3-5 μg/mL in PBS containing 0.3% (w/v) skimmed milk powder. After washing three times with 300 μL per well of PBS containing 0.1% (v/v) Tween 20, plates were incubated with serial dilutions of biotinylated dimeric or monomeric CD16A antigen in PBS containing 0.3% (w/v) skimmed milk powder for 1.5 h at room temperature. After washing, plates were incubated with the detection conjugate Streptavidin HRP, 1:10,000 diluted in PBS containing 0.3% (w/v) skimmed milk powder for 1 h followed by washing and incubation with tetramethylbenzidine substrate (Seramun) for 1-2 min. Reaction was stopped by addition of 0.5 M H₂SO₄ (100 μL/well). Absorbance was measured at 450 nm using a multiwell plate reader, plotted and EC₅₀ values were determined by fitting a nonlinear regression model to sigmoidal dose-response curves (four parameters logistic fit) using GraphPad Prism software.
(§2) Concentration dependent binding of antibody constructs to coated recombinant CD16A antigen, or of soluble monomeric or dimeric CD16 antigen variants to coated or target antigen captured antibody constructs was analyzed in ELISA. Half maximal binding concentrations (EC₅₀) were determined by fitting a nonlinear regression model to sigmoidal dose-response curves (four parameters logistic fit) using GraphPad Prism software.

Experiment [2] deals with T2, biotinylated monomeric CD16A antigen (human, UniProt P08637 17-208, limits assumed, biotinylated (site not stated)).
T2 construct: Soluble antigen; also called soluble CD16A antigen
T2 sequence (P08637 17-208 limits assumed): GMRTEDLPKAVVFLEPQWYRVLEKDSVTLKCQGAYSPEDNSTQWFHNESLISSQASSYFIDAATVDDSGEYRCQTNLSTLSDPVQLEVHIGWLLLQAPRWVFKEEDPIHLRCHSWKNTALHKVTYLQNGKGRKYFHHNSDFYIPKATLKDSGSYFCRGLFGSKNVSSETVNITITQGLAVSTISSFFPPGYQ
Kind of experiment: ELISA, biotinylated monomeric CD16A titrated on coated construct. Here is the method: as §1, §2

The target of experiment [3] is T3, His-tagged human BCMA extracellular domain (human, UniProt Q02223 1-54).
T3 construct: extracellular domain; Coated at 0.4 ug/mL to capture the BCMA-targeting constructs; not shown: His tag
T3 sequence (looked up): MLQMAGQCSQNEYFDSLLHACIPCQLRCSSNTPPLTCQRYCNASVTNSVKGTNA
As to the kind of experiment: ELISA, construct captured on coated His-tagged human BCMA extracellular domain.

Experiment [4] has as its target T4, recombinant CD16A 158F fused to monomeric human Fc (human, UniProt P08637 17-208).
T4 construct: also called recombinant CD16 antigen variant; not shown: monomeric human Fc
As to the kind of experiment: ELISA, construct titrated on coated CD16A 158F fused to monomeric human Fc. The protocol: To assess binding of EGFR/CD16 or BCMA/CD16 antibodies to coated antigen in ELISA, 96-well ELISA plates (Immuno Maxisorp, Nunc) were coated overnight at 4° C. with recombinant CD16 antigen variants fused to monomeric human Fc at a concentration of 1.5 μg/mL in 100 mM carbonate-bicarbonate buffer. After blocking with 3% (w/v) skimmed milk powder dissolved in phosphate buffered saline (PBS) serial dilutions of bispecific antibody constructs were incubated on the antigen coated plates for 1.5 h at room temperature. […] After washing, plates were incubated with tetramethylbenzidine substrate (Seramun) for 1-2 min. Reaction was stopped by addition of 0.5 M H₂SO₄ (100 μL/well). Absorbance was measured at 450 nm using a multiwell plate reader, plotted and EC₅₀ values were determined by fitting a nonlinear regression model to sigmoidal dose-response curves (four parameters logistic fit) using GraphPad Prism software.
as §2

The target of experiment [5] is recombinant CD16A 158V fused to monomeric human Fc (human, UniProt P08637 17-208). Kind of experiment: ELISA, construct titrated on coated CD16A 158V fused to monomeric human Fc.
recombinant CD16A 158V fused to monomeric human Fc, sequence (P08637 17-208 F176V): as the sequence (P08637 17-208 limits assumed) above, with F160V counted along it
Experiment [6] deals with T1, biotinylated dimeric CD16A antigen. As to the kind of experiment: ELISA, biotinylated dimeric CD16A titrated on construct captured by coated His-tagged human BCMA extracellular domain. Here is the method:
as §1, §2

Experiment [7] deals with T2, biotinylated monomeric CD16A antigen. Kind of experiment: ELISA, biotinylated monomeric CD16A titrated on construct captured by coated His-tagged human BCMA extracellular domain. Here is the method:
as §1, §2

The target in experiment [8] is T5, His-tagged human EGFR extracellular domain (human, UniProt P00533 25-645).
T5 construct: extracellular domain; Coated at 3.0 ug/mL to capture the EGFR-targeting constructs; not shown: His tag
Kind of experiment: ELISA, construct captured on coated His-tagged human EGFR extracellular domain.

The target in experiment [9] is T1, biotinylated dimeric CD16A antigen. As to the kind of experiment: ELISA, biotinylated dimeric CD16A titrated on construct captured by coated His-tagged human EGFR extracellular domain. The protocol: as §1, §2
Experiment [10] has as its target T2, biotinylated monomeric CD16A antigen. Kind of experiment: ELISA, biotinylated monomeric CD16A titrated on construct captured by coated His-tagged human EGFR extracellular domain. Here is the method:
as §1, §2

T1 sequence (P08637 17-208 limits assumed): as the sequence (P08637 17-208 limits assumed) above
T4 sequence (P08637 17-208): as the sequence (P08637 17-208 limits assumed) above

B1: scFv-IgAb_18 (bispecific antibody)
heavy: EVQLLESGGGLVQPGGSLRLSCAASGFTFSNYDMAWVRQAPGKGLEWVSSISTRGDITSYRDSVKGRFTISRDNSKNTLYLQMNSLRAEDTAVYYCARQDYYTDYMGFAYWGQGTLVTVSSASTKGPSVFPLAPSSKSTSGGTAALGCLVKDYFPEPVTVSWNSGALTSGVHTFPAVLQSSGLYSLSSVVTVPSSSLGTQTYICNVNHKPSNTKVDKKVEPKSCDKTHTCPPCPAPEFEGGPSVFLFPPKPKDTLMISRTPEVTCVVVAVSHEDPEVKFNWYVDGVEVHNAKTKPREEQYNSTYRVVSVLTVLHQDWLNGKEYKCKVSNKALPAPIEKTISKAKGQPREPQVYTLPPSREEMTKNQVSLTCLVKGFYPSDIAVEWESNGQPENNYKTTPPVLDSDGSFFLYSKLTVDKSRWQQGNVFSCSVMHEALHNHYTQKSLSLSPGGGGGSGGGGSGGGGSGGGGSGGGGSGGGGSSYVLTQPSSVSVAPGQTATISCGGHNIGSKNVHWYQQRPGQSPVLVIYQDNKRPSGIPERFSGSNSGNTATLTISGTQAMDEADYYCQVWDNYSVLFGGGTKLTVLGGSGGSGGSGGSGGSGGSGGSQVQLVQSGAEVKKPGESLKVSCKASGYTFTSYYMHWVRQAPGQGLEWMGAIEPMYGSTSYAQKFQGRVTMTRDTSTSTVYMELSSLRSEDTAVYYCARGSAYYYDFADYWGQGTLVTVSS
light: AIQMTQSPSSLSASVGDRVTITCRASEDIYNGLAWYQQKPGKAPKLLIYGASSLQDGVPSRFSGSGSGTEFTLTISSLQPEDEATYYCAGPHKYPLTFGGGTKVEIKRTVAAPSVFIFPPSDEQLKSGTASVVCLLNNFYPREAKVQWKVDNALQSGNSQESVTEQDSKDSTYSLSSTLTLSKADYEKHKVYACEVTHQGLSSPVTKSFNRGEC
In the case of B1, the EC50 came to 2310 pM in experiment [1]; 13100 pM in experiment [2]; 540 pM in experiment [4]; 310 pM in [5]; 740 pM in experiment [6]; 1980 pM in experiment [7]. For the same molecule, the binding result in [3] is given as “binds”.

B2: scFv-IgAb_47 (bispecific antibody)
heavy: QVQLVQSGAEVKKPGESLKVSCKASGYTFTSYYMHWVRQAPGQGLEWMGAIEPMYGSTSYAQKFQGRVTMTRDTSTSTVYMELSSLRSEDTAVYYCARGSAYYYDFADYWGQGTLVTVSSASTKGPSVFPLAPSSKSTSGGTAALGCLVKDYFPEPVTVSWNSGALTSGVHTFPAVLQSSGLYSLSSVVTVPSSSLGTQTYICNVNHKPSNTKVDKKVEPKSCDKTHTCPPCPAPEFEGGPSVFLFPPKPKDTLMISRTPEVTCVVVAVSHEDPEVKFNWYVDGVEVHNAKTKPREEQYNSTYRVVSVLTVLHQDWLNGKEYKCKVSNKALPAPIEKTISKAKGQPREPQVYTLPPSREEMTKNQVSLTCLVKGFYPSDIAVEWESNGQPENNYKTTPPVLDSDGSFFLYSKLTVDKSRWQQGNVFSCSVMHEALHNHYTQKSLSLSPGGGGGSGGGGSQVQLQESGPGLVKPSETLSLTCTVSGGSVSSGSYYWSWIRQPPGKGLEWIGYIYYSGSTNYNPSLKSRVTISVDTSKNQFSLKLSSVTAADTAVYYCARNPISIPAFDIWGQGTMVTVSSGGSGGSGGSGGSGGSGGSQPVLTQPPSVSVAPGKTARITCGGNNIGSKSVHWYQQKPGQAPVLVIYYDSDRPSGIPERFSGSNSGNTATLTISRVEAGDEADYYCQVWDTSSDHVLFGGGTKLTVL
light: SYVLTQPSSVSVAPGQTATISCGGHNIGSKNVHWYQQRPGQSPVLVIYQDNKRPSGIPERFSGSNSGNTATLTISGTQAMDEADYYCQVWDNYSVLFGGGTKLTVLGQPKAAPSVTLFPPSSEELQANKATLVCLISDFYPGAVTVAWKADSSPVKAGVETTTPSKQSNNKYAASSYLSLTPEQWKSHRSYSCQVTHEGSTVEKTVAPTECS
For the molecule B2, the EC50 in [1] worked out at 890 pM; in [2] it was 2000 pM; in experiment [4], 180 pM; in [5], 160 pM; in [9], 760 pM; in [10], 1620 pM. For the same molecule, in experiment [8], the binding result is reported as “binds”.
